In US20120010151A1:
Where no end group is shown, it is not given here. The star is where a group is joined. Boc = CC(C)(C)OC(=O)*

Target: Wnt-5a receptors (on A2058 melanoma cells)
Experiment: cell-based or functional assay

inhibition of the Wnt-5a-induced Ca2+ signal (fura-2, A2058 melanoma cells, 100 uM Box5, 0.1 ug/ml Wnt-5a): > 70%
Binder: Boc-MDGCEL [Box5 (Wnt-5a-derived N-butyloxycarbonyl hexapeptide Met-Asp-Gly-Cys-Glu-Leu)]
